Legend:
[1] = target: T1, NR2B (Homo sapiens, UniProt Q13224); test: Ion channel panel (IonWorks Barracuda): NR2B; assay type: cell-based; conditions: 100% = no change, <100% = inhibition
T1 construct: host or cells: HEK293 or CHO
How it was run: (§1)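 Transfected HEK293 or CHO cells were exposed for at least 5 min to peptides at 200 nM and 20 μM final, tested in duplicate, in HEPES-buffered physiological saline. Activation was taken as peptide-plus-agonist current over control current ×100, and inhibition as 1 minus that ratio ×100. Each channel's control was its own reference compound.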

[2] = target: hERG (Homo sapiens, UniProt Q12809); test: in vitro; conditions: 100% = no change, <100% = inhibition
How it was run: as §1

[3] = target: Nav1.5 (Homo sapiens, UniProt Q14524); test: in vitro; conditions: 100% = no change; for Activity of Nav1.5 with peptide, expressed as a percentage of the reference compound: peptide at 0.2 μM; for Activity of Nav1.5 with peptide (percentage of the reference compound): peptide at 20 μM
How it was run: as §1

[4] = target: T2, α3β4 (Homo sapiens, UniProt P30926+P32297); test: Ion channel panel (IonWorks Barracuda): α3β4; assay type: cell-based; conditions: 100% = no change, <100% = inhibition
T2 construct: host or cells: HEK293 or CHO
How it was run: as §1

[5] = target: T3, NR2A (Homo sapiens, UniProt Q12879); test: Ion channel panel (IonWorks Barracuda): NR2A; assay type: cell-based; conditions: 100% = no change, <100% = inhibition
T3 construct: host or cells: HEK293 or CHO
How it was run: as §1

[6] = test system: GABA; test: Ion channel panel (IonWorks Barracuda): GABA; assay type: cell-based; conditions: 100% = no change, <100% = inhibition
How it was run: as §1

[7] = target: T4, Nav1.7 (Homo sapiens, UniProt Q15858); test: cell-based; assay type: cell-based; conditions: 100% = no change; for Activity of Nav1.7 with peptide, expressed as a percentage of the reference compound: peptide at 0.2 μM; for Activity of Nav1.7 with peptide (percentage of the reference compound): peptide at 20 μM
T4 construct: host or cells: HEK293 or CHO

[8] = target: T5, Kv2.1 (Homo sapiens, UniProt Q14721); test: cell-based; conditions: 100% = no change, <100% = inhibition
T5 construct: host or cells: HEK293 or CHO
How it was run: as §1

[9] = target: T6, Cav2.2 (Homo sapiens, UniProt Q00975); test: cell-based; conditions: 100% = no change, <100% = inhibition
T6 construct: host or cells: HEK293 or CHO
How it was run: as §1

[10] = target: T7, Cav2.1 (Homo sapiens, UniProt O00555); test: cell-based; conditions: 100% = no change, <100% = inhibition
T7 construct: host or cells: HEK293 or CHO
How it was run: as §1

[11] = target: T8, TRPA1 (Homo sapiens, UniProt O75762); test: Ion channel panel (IonWorks Barracuda): TRPA1; assay type: cell-based; conditions: 100% = no change, <100% = inhibition
T8 construct: host or cells: HEK293 or CHO
How it was run: as §1

[12] = target: T9, Kv1.3 (Homo sapiens, UniProt P22001); test: cell-based; assay type: cell-based; conditions: 100% = no change, <100% = inhibition
T9 construct: host or cells: HEK293 or CHO
How it was run: as §1

[13] = target: T10, Kv1.2 (Homo sapiens, UniProt P16389); test: cell-based; assay type: cell-based; conditions: 100% = no change, <100% = inhibition
T10 construct: host or cells: HEK293 or CHO
How it was run: as §1

[14] = target: T11, Kv1.1 (Homo sapiens, UniProt Q09470); test: cell-based; assay type: cell-based; conditions: 100% = no change, <100% = inhibition
T11 construct: host or cells: HEK293 or CHO
How it was run: as §1

[15] = target: T12, α4β2 (Homo sapiens, UniProt P17787+P43681); test: Ion channel panel (IonWorks Barracuda): α4β2; assay type: cell-based; conditions: 100% = no change, <100% = inhibition
T12 construct: host or cells: HEK293 or CHO
How it was run: as §1

[16] = target: T13, TRPV1 (Homo sapiens, UniProt Q8NER1); test: Ion channel panel (IonWorks Barracuda): TRPV1; assay type: cell-based; conditions: 100% = no change, <100% = inhibition
T13 construct: host or cells: HEK293 or CHO
How it was run: as §1

[17] = target: T14, 5HT3a (Homo sapiens, UniProt P46098); test: Ion channel panel (IonWorks Barracuda): 5HT3a; assay type: cell-based
T14 construct: host or cells: HEK293 or CHO
T14 sequence (P46098 whole entry, looked up): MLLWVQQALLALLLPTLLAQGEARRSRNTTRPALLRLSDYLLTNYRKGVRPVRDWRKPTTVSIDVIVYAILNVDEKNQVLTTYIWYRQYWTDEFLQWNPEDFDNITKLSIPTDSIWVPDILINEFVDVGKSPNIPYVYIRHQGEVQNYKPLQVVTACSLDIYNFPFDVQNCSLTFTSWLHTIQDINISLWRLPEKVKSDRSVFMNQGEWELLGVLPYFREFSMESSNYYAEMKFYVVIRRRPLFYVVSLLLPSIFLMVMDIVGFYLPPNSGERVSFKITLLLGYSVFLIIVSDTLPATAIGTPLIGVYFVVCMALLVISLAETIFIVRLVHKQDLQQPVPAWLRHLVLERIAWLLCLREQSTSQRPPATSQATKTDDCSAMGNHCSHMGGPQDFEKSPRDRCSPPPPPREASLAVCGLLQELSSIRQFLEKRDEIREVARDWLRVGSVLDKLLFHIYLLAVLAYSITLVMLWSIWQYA
How it was run: as §1

[18] = target: T15, Kir2.1 (Homo sapiens, UniProt P63252); test: Ion channel panel (IonWorks Barracuda): Kir2.1; assay type: cell-based; conditions: 100% = no change, <100% = inhibition
T15 construct: host or cells: HEK293 or CHO
How it was run: as §1

[19] = first of two Nav1.5 columns (probably TP1)
[20] = second of two Nav1.5 columns (probably TP2)
[21] = first of two Nav1.7 columns (probably TP1)
[22] = second of two Nav1.7 columns (probably TP2)

T4 sequence (Q15858 whole entry): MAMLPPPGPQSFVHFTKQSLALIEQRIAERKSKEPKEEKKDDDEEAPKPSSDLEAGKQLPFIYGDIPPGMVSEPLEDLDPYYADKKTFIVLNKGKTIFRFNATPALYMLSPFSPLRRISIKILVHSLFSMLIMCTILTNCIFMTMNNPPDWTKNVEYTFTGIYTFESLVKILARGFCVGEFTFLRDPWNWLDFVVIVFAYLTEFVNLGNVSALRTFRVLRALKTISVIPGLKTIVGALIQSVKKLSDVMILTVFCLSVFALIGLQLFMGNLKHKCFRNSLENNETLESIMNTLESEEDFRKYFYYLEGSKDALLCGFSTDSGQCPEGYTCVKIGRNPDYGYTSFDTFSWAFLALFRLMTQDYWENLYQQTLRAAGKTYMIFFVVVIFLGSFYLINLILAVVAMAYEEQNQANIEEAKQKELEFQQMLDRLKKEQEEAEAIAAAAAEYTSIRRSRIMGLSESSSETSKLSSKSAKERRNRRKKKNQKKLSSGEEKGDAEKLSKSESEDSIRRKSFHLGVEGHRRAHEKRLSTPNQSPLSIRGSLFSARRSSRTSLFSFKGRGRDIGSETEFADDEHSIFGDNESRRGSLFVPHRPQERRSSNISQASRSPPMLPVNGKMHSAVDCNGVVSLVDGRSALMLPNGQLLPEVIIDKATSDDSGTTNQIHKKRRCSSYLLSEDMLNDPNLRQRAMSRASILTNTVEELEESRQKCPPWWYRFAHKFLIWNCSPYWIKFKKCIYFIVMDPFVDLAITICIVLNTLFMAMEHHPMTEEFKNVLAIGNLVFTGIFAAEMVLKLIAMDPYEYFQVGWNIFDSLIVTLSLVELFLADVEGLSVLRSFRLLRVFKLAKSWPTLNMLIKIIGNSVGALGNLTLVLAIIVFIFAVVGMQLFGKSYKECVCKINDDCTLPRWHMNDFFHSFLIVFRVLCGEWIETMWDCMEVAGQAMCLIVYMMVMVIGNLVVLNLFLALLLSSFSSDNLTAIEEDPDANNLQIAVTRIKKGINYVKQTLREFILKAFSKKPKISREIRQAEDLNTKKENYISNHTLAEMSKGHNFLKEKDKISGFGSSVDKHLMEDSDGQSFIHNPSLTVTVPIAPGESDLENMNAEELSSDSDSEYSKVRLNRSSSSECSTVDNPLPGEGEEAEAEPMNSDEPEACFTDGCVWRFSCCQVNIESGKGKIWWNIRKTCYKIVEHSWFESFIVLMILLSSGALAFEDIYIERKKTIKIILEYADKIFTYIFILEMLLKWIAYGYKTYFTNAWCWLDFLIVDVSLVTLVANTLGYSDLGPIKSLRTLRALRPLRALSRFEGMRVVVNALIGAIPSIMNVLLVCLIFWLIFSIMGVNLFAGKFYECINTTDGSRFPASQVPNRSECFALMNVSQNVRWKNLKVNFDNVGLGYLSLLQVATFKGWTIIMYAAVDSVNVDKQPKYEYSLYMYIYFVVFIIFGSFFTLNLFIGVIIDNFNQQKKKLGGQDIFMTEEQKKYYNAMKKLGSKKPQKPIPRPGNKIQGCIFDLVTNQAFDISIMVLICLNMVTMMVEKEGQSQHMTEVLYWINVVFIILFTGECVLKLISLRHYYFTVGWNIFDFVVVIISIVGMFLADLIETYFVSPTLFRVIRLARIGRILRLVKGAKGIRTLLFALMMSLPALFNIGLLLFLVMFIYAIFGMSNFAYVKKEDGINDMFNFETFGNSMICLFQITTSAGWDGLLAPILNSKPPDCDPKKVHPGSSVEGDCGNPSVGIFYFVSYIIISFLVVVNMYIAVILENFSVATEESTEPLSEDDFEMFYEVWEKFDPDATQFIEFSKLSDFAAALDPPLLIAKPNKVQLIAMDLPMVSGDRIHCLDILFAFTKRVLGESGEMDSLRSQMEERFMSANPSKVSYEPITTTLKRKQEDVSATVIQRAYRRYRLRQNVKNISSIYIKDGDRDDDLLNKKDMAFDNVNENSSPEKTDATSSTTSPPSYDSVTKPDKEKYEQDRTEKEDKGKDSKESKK
Sequence of Nav1.5 (Q14524 whole entry): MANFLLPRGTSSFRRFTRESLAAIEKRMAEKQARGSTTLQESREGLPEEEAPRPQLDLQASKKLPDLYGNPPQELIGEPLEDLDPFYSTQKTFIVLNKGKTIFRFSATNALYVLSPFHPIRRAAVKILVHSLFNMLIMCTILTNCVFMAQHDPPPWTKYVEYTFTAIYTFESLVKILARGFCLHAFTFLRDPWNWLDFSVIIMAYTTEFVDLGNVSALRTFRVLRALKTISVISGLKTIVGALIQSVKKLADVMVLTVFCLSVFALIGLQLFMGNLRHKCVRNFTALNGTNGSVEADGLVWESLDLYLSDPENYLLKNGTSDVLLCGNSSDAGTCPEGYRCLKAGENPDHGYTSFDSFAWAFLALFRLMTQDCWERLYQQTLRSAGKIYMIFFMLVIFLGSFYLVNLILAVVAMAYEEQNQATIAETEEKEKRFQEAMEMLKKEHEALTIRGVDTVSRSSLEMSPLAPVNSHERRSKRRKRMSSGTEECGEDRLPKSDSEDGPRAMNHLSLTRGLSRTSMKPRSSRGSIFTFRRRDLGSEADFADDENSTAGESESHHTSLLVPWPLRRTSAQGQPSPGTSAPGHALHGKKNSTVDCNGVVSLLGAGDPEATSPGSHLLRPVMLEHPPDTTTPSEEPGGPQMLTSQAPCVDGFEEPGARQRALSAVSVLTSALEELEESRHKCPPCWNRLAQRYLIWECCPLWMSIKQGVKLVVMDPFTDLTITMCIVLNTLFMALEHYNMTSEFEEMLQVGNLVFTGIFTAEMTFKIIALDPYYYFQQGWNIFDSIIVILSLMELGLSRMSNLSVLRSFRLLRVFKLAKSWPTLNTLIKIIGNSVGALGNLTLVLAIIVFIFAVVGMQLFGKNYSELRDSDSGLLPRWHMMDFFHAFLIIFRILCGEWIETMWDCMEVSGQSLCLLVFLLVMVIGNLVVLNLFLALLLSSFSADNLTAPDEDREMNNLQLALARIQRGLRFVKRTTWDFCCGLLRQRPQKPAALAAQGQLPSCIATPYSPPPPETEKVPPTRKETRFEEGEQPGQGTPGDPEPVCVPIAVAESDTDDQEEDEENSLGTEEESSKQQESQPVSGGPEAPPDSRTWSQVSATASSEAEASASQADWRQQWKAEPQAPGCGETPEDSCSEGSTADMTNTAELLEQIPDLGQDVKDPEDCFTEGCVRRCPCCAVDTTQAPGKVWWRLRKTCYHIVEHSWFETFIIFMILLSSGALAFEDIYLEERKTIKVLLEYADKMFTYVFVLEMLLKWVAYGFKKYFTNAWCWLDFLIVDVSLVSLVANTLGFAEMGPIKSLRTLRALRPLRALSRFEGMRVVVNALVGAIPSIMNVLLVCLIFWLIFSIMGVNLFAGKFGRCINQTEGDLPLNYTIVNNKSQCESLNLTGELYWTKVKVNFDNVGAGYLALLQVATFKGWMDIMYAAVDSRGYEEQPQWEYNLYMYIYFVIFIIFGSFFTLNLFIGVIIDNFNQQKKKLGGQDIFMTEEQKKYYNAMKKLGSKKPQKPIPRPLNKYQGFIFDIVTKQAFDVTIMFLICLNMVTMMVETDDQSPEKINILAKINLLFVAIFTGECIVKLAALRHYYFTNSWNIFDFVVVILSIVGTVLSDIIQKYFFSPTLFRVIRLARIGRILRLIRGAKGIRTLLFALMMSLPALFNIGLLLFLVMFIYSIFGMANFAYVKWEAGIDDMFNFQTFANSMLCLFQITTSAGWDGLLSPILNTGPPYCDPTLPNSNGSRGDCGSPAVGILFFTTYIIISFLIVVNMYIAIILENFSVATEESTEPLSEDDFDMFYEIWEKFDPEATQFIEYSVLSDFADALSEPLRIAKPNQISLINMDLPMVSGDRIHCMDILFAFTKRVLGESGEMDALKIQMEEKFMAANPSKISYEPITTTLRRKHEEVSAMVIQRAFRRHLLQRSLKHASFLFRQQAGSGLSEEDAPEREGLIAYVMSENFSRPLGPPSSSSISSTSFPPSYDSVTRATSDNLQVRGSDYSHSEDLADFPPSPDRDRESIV
T11 sequence (Q09470 whole entry): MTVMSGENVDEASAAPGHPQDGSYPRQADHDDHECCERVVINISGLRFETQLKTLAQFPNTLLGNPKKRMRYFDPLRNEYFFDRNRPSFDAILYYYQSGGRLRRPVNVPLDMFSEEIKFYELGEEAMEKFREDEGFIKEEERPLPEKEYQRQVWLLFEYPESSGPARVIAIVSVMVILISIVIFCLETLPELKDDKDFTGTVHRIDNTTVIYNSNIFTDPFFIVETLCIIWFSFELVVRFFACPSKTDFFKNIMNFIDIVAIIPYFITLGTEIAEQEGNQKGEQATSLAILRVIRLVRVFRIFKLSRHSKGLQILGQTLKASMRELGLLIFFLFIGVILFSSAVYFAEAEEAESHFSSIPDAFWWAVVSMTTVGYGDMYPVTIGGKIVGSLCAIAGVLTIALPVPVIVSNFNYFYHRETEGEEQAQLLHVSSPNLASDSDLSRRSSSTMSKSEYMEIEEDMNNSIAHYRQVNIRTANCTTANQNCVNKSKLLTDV
T15 sequence (P63252 whole entry): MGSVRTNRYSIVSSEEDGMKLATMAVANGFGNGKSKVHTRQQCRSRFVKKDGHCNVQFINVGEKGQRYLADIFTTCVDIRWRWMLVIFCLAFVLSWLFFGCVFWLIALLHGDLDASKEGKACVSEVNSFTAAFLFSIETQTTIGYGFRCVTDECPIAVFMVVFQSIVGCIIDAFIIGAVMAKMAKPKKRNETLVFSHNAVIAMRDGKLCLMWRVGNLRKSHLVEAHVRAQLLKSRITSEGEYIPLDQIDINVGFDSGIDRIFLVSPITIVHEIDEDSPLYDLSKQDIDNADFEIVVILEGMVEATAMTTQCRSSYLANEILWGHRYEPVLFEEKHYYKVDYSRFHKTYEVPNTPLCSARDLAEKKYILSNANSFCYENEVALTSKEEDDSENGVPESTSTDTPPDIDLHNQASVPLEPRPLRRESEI

Substance: 21 (GSAEIIRCSGTRECYAPCQKLTGCLNAKCMNKACKCYGCV) [compound 21]
- Activity of NR2B with peptide, expressed as a percentage of the reference compound ([1]; peptide at 0.2 μM): 113%
- Activity of NR2B with peptide (percentage of the reference compound) ([1]; peptide at 20 μM): 105%
- Activity of hERG with peptide, expressed as a percentage of the reference compound ([2]; peptide at 0.2 μM): 109%
- Activity of hERG with peptide (percentage of the reference compound) ([2]; peptide at 20 μM): 72%
- Activity of Nav1.5 with peptide, expressed as a percentage of the reference compound [3, 19]: 108%
- Activity of Nav1.5 with peptide, expressed as a percentage of the reference compound [3, 20]: 105%
- Activity of Nav1.5 with peptide (percentage of the reference compound) [3, 19]: 96%
- Activity of Nav1.5 with peptide (percentage of the reference compound) [3, 20]: 91%
- Activity of a3b4 with peptide, expressed as a percentage of the reference compound ([4]; peptide at 0.2 μM): 102%
- Activity of a3b4 with peptide (percentage of the reference compound) ([4]; peptide at 20 μM): 93%
- Activity of NR2A with peptide, expressed as a percentage of the reference compound ([5]; peptide at 0.2 μM): 105%
- Activity of NR2A with peptide (percentage of the reference compound) ([5]; peptide at 20 μM): 103%
- Activity of GABA with peptide, expressed as a percentage of the reference compound ([6]; peptide at 0.2 μM): 111%
- Activity of GABA with peptide (percentage of the reference compound) ([6]; peptide at 20 μM): 123%
- Activity of Nav1.7 with peptide, expressed as a percentage of the reference compound [7, 21]: 112%
- Activity of Nav1.7 with peptide, expressed as a percentage of the reference compound [7, 22]: 120%
- Activity of Nav1.7 with peptide (percentage of the reference compound) [7, 21]: 105%
- Activity of Nav1.7 with peptide (percentage of the reference compound) [7, 22]: 123%
- Activity of Kv2.1 with peptide, expressed as a percentage of the reference compound ([8]; peptide at 0.2 μM): 110%
- Activity of Kv2.1 with peptide (percentage of the reference compound) ([8]; peptide at 20 μM): 108%
- Activity of Cav2.2 with peptide, expressed as a percentage of the reference compound ([9]; peptide at 0.2 μM): 98%
- Activity of Cav2.2 with peptide (percentage of the reference compound) ([9]; peptide at 20 μM): 105%
- Activity of Cav2.1 with peptide, expressed as a percentage of the reference compound ([10]; peptide at 0.2 μM): 103%
- Activity of Cav2.1 with peptide (percentage of the reference compound) ([10]; peptide at 20 μM): 106%
- Activity of TRPA1 with peptide, expressed as a percentage of the reference compound ([11]; peptide at 0.2 μM): 119%
- Activity of TRPA1 with peptide (percentage of the reference compound) ([11]; peptide at 20 μM): 95%
- Activity of Kv1.3 with peptide, expressed as a percentage of the reference compound ([12]; peptide at 0.2 μM): 65%
- Activity of Kv1.3 with peptide (percentage of the reference compound) ([12]; peptide at 20 μM): 5%
- Activity of Kv1.2 with peptide, expressed as a percentage of the reference compound ([13]; peptide at 0.2 μM): 52%
- Activity of Kv1.2 with peptide (percentage of the reference compound) ([13]; peptide at 20 μM): 36%
- Activity of Kv1.1 with peptide, expressed as a percentage of the reference compound ([14]; peptide at 0.2 μM): 106%
- Activity of Kv1.1 with peptide (percentage of the reference compound) ([14]; peptide at 20 μM): 98%
- Activity of a4b2 with peptide, expressed as a percentage of the reference compound ([15]; peptide at 0.2 μM): 102%
- Activity of a4b2 with peptide (percentage of the reference compound) ([15]; peptide at 20 μM): 85%
- Activity of TRPV1 with peptide, expressed as a percentage of the reference compound ([16]; peptide at 0.2 μM): 106%
- Activity of TRPV1 with peptide (percentage of the reference compound) ([16]; peptide at 20 μM): 86%
- Activity of 5HT3a with peptide (percentage of the reference compound) [17]: 91%
- Activity of 5HT3a with peptide, expressed as a percentage of the reference compound [17]: 87%
- Activity of Kir2.1 with peptide, expressed as a percentage of the reference compound ([18]; peptide at 0.2 μM): 105%
- Activity of Kir2.1 with peptide (percentage of the reference compound) ([18]; peptide at 20 μM): 101%
